Data on one substance can be found in PMC6761020.

The assay addresses Human Type IV Collagen (human) (UniProt P02462). Briefly: ELISA. On the technique in general: In an ELISA, binding on a coated surface is turned into a signal by an enzyme label.

Human Type IV Collagen (human), sequence (P02462 173-1669): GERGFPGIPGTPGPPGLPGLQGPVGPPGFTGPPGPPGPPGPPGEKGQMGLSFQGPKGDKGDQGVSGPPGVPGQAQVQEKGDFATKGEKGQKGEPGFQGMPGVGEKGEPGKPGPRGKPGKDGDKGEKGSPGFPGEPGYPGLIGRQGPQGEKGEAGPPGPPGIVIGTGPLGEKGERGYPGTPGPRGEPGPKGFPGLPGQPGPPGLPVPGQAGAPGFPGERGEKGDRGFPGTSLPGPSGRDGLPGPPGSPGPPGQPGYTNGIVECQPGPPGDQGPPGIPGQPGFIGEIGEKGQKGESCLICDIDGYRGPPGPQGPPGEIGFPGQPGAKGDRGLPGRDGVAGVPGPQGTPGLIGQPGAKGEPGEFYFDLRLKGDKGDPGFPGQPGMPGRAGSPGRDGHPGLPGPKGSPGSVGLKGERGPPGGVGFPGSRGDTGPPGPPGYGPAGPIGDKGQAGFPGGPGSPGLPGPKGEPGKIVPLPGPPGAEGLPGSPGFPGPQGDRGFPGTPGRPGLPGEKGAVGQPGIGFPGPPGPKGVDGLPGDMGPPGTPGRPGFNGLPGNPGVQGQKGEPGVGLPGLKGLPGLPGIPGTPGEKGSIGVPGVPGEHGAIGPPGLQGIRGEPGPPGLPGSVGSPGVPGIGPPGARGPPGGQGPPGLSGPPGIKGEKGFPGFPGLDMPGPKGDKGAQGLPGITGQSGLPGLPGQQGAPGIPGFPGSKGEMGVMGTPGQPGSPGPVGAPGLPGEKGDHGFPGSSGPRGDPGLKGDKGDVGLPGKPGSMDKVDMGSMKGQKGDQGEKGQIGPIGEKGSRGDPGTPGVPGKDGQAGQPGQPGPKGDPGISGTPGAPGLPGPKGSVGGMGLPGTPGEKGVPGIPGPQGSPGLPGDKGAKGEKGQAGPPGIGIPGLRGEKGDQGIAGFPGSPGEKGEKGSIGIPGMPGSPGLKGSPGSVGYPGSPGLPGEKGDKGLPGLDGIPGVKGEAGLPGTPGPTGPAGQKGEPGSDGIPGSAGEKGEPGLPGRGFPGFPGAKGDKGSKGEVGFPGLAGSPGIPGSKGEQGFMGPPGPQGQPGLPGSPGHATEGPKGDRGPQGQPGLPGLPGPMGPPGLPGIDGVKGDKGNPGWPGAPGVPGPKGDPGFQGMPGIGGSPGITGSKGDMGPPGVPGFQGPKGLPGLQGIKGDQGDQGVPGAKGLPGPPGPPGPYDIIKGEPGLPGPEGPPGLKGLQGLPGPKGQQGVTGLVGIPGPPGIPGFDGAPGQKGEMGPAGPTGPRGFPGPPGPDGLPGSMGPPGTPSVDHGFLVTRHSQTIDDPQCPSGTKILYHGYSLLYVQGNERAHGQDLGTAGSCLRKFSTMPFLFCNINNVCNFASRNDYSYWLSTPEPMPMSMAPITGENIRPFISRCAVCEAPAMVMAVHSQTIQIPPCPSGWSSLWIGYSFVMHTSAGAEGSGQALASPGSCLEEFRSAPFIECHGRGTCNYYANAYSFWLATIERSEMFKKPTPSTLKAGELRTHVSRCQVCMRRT

In turn, “von Willebrand factor (human, plasma) (from UniProt P04275 764-2813) (natural protein)” displayed a percent reduction of binding by 10 μg/ml ARC1779 against saline of 34%.
